Measurements as given in patent US20120003299A1 (KYOTO UNIVERSITY, published 2012).

Experiments:
recombinant human Hsp90 [1] = molecular target: T1, recombinant human Hsp90 (human, UniProt P07900 1-732); assay: SPR competition: Hsp90 without peptide (0 uM, reference) over immobilized Hop TPR2A
T1 construct: The tag is placed first here only because pDEST17 is named; also called heat shock protein 90; not shown: histidine tag from E. coli expression vector pDEST17-Hsp90

recombinant human Hsp90 [2] = molecular target: T1, recombinant human Hsp90; assay: SPR competition: Hsp90 pre-mixed with 1.411 uM peptide, injected over immobilized Hop TPR2A
recombinant human Hsp90 [3] = molecular target: T1, recombinant human Hsp90; assay: SPR competition: Hsp90 pre-mixed with 14.11 uM peptide, injected over immobilized Hop TPR2A
recombinant human Hsp90 [4] = molecular target: T1, recombinant human Hsp90; assay: SPR competition: Hsp90 pre-mixed with 141.1 uM peptide, injected over immobilized Hop TPR2A
recombinant human Hsp90 [5] = molecular target: T1, recombinant human Hsp90; assay: SPR competition: Hsp90 pre-mixed with 282.2 uM peptide, injected over immobilized Hop TPR2A
recombinant human Hsp90 [6] = molecular target: T1, recombinant human Hsp90; assay: SPR competition: Hsp90 pre-mixed with 705.5 uM peptide, injected over immobilized Hop TPR2A

KAYARIGNSYFK [TPR peptide (KAYARIGNSYFK)]
Binding of Hsp90 (%) (recombinant human Hsp90 [1]): 100%
Binding of Hsp90 (%) (recombinant human Hsp90 [2]): 88.2%
Binding of Hsp90 (%) (recombinant human Hsp90 [3]): 84.6%
Binding of Hsp90 (%) (recombinant human Hsp90 [4]): 72.3%
Binding of Hsp90 (%) (recombinant human Hsp90 [5]): 29.8%
Binding of Hsp90 (%) (recombinant human Hsp90 [6]): 0%

RKFSAAIGYNKY (Control peptide) [TPR scramble peptide]
Binding of Hsp90 (%) (recombinant human Hsp90 [1]): 100%
Binding of Hsp90 (%) (recombinant human Hsp90 [2]): 100%
Binding of Hsp90 (%) (recombinant human Hsp90 [3]): 100%
Binding of Hsp90 (%) (recombinant human Hsp90 [4]): 100%
Binding of Hsp90 (%) (recombinant human Hsp90 [5]): 90.7%
Binding of Hsp90 (%) (recombinant human Hsp90 [6]): 88.9%
